Results taken from a protein production outcome set (Wang et al. 2014).

assay: label from the status in PepcDB records
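Note: failed if final PepcDB status was selected cloned or expressed and not failed if soluble or beyond.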

Row | Sequence | protein production
1 | MSASSLFNLPLIRLRSLALSSSFSSFRFAHRPLSSISPRKLPNFRAFSGTAMTDTKDAGMDAVQRRLMFEDECILVDETDRVVGHDSKYNCHLMENIEAKNLLHRAFSVFLFNSKYELLLQQRSNTKVTFPLVWTNTCCSHPLYRESELIQDNALGVRNAAQRKLLDELGIVAEDVPVDEFTPLGRMLYKAPSDGKWGEHELDYLLFIVRDVKVQPNPDEVAEIKYVSREELKELVKKADAGEEGLKLSPWFRLVVDNFLMKWWDHVEKGTLVEAIDMKTIHKL | failed
2 | MSASVVCVVGNPNCGKTTLFNALTGGRQSVGNWPGVTVEKKVGAYRHGGEAVTIVDLPGVYSLTPTSSSSEDERVARDYILSGEAGLVLNIVDASNLERNLYLTAQLLEMRVPMVVIVNMMDIAASRHLDIDIDALSKSLDCKVVPMVASRRRGLDDLREVIAQSMGRTTPPAASAPYPPAVSEAVGRIAATLPADSRADRRWTALQLLEGDSTLLRDLPPATALALESDLKQAAQSGTEDFDILIADARYGFVGAIALGAVIRKGQMSRTLTDRIDKVVLHRVLGIPIFLAMMYLMFVFTINVGGAFIDFFDQFAGTLFVDGFGHLLGGAGAPDWLTALLAKGVGGGVQTVATFIPVIGFLYLFLSVLEDSGYMARAAFVMDRFMRGIGLPGKAFVPLIVGFGCNVPAVMATRTMDSRRDRLITVMMAPFMSCGARLPVYVLFAAAFFPSGGQNLVFALYLIGILVAIATGLLLKTTALRGEASPFVMEMPPYHLPTVAGILLRTWDRLKSFILRAGKLVVAVVVVLSFLNSWGTDGSFGNEDTDKSVLAAIGKAIVPVFAPMGISEENWPATVGVFTGIFAKEAVVGTLDALYGTIAEGNAAAAQAEADPEAAATEEPEAFDLWGGLAGAFATIPANLSNVAGALADPLGIEVGDLSDRSAVAADQEISTSSIDAIALLFDGAIGAFAYLLMVLLYMPCVAAVSAIWREVGTRWTLFAAAWTTGMGYGAAVLTYQIGTFSRHPVSSAVDIAVVLAVLAAAIALLRLAGRGSAEAGPISAGQTAS | failed
3 | MSATLKDYLNKRVVIIKVDGECLIASLNGFDKNTNLFITNVFNRISKEFICKAQLLRGSEIALVGLIDAENDDSLAPIDEKKVPMLKDTKNKIENEHVIWEKVYESKTK | failed
4 | MSATTTNLKEAIVNRRSIRKVTKNDAITKERIEEVLKTALHAPTSFNMQSGRMVVLMDGEHEKFWDIVKETLRARVPAENFEATVERLKGFHAGVGTVLFFEDQATVEKMQENAPLYKDQFPFWSHQGNAMLQHTVWMLLSAEGIGASLQHYNPIVDAEVKETWNIPAEWSLVGQMPFGEPNEQPAERTFLPTEDVVKFY | not failed
5 | MSAVFSGGLTQAGGMSSTETVDSSAVSSGTISDYVEAMGPSWIAGAIAAGPATIASLVTAGGAFGYSLLWVVVLSAGAGALAQYLAMRLGLLTERGIVAVVEDHLGETWAWLLVGDAVLAAGVAQLVIMKTVATVSATVTGIDARIWGVVWALILAAGLAGGGYRFLELAAKILVLLVVVAFVASLFVVPIDAGAAVAGLVPSVPSGSALVAAGILGGAVHITLITMHSYTMRARGWTREDYDLATVDVGASMLVAFGIYSLAIFLVTASVLTSGDLTTVGAAEALGPLVGDSARWLFLLGLWGAAVSTLGGNTIVPPFLLADKLGWGTTIEDNRYRGLLAAVALLSAPGAFIGGNVLGQLVLVLALGTVGTPFAIALVLYLLNSAAVPESNSLLANVGGLALIAVSGGLAANFVVEQLGGGVGPLSGFVLAFAIALGLAMAGLGGKFLREELLA | failed
6 | MSCVDKGFSPYISLLISGLTVVFDQVIKWQTQQSIAYGDSISLTPFFNWVHTWNTGAAFGLLSNGGGWQRYFFIGVALLMSVALTRLIFNKVSKRDGISYGLILGGAVGNLIDRLFRGYVVDSLHLGWQTWQLPVFNIADIAITLGVILLLLSNLQVSMIPNLPGSK | failed
7 | MSDAEQPAESETHDHHDHDHEGPGYATPQAAIEAAEPEQTAYVMGLHVGQDVDAPDFLAVVDLDPDSDTYSEIINRVQMPNKGDELHHFGWNACSSSCHMDGLERRHLVIPGQRSSRIHIVDTKERRDPELTKVIEPEEVYEHDLSAPHTVHCIPDGEILISMLGDADGDLPGGFLELNDDFEVQGRWDPPGEIEMNYDYWYQPRQNVMLSTEWAAPKTYYPGFDLDDVEDGKYGQRLNFWDWEDGVIEQTIDLGEDGLIPLEARFLHTPESTHGYVGAALSSNIIHFHESDGRYHAEPVIEFDDREHEGWDMPVPALVTDILISMDDRYLFGSSWLHGEVWMYDISDPSNPRKADSISIGGYFGDIEQVQGRDIVAGPQMLQLSLDGERLYWTTSLFSSWDNQFFPEEAEKGSVMLKADVDPRTGTMSLDRDFLVDFGDLPEGPARAHEIRWPDGDCTSDVWQ | failed
8 | MSDALSAIPAAVHRNLSDKLYEKRKNAALELENIVKNLTSSGDHDKISKVIEMLIKEFAKSPQANHRKGGLIGLAAVTVGLSTEAAQYLEQIVPPVINSFSDQDSRVRYYACEALYNIAKVVRGDFIIFFNKIFDALCKLSADSDANVQSAAHLLDRLVKDIVTESDQFSIEEFIPLLKERMNVLNPYVRQFLVGWITVLDSVPDIDMLGFLPDFLDGLFNMLSDSSHEIRQQADSALSEFLQEIKNSPSVDYGRMAEILVQRAASPDEFTRLTAITWINEFVKLGGDQLVRYYADILGAILPCISDKEEKIRVVARETNEELRSIHVEPSDGFDVGAILSVARRQLSSEFEATRIEALNWISTLLNKHRTEVLCFLNDIFDTLLKALSDSSDDVVLLVLEVHAGVAKDPQHFRQLIVFLVHNFRADNSLLERRGALIVRRMCVLLDAERVYRELSTILEGEDNLDFASTMVQALNLILLTSPELSKLRELLKGSLVNREGKELFVALYTSWCHSPMAIISLCLLAQAYQHASVVIQSLVEEDINVKFLVQLDKLIRLLETPIFTYLRLQLLEPGRYTWLLKTLYGLLMLLPQQSAAFKILRTRLKTVPTYSFSTGNQIGRATSGVPFSQYKHQNEDGDLEDDNINSSHQGINFAVRLQQFENVQNLHRGQARTRVNYSYHSSSSSTSKEVRRSEEQQQQQQQQQQQQQQQQRPPPSSTSSSVADNNRPPSRTSRKGPGQLQL | not failed
9 | MSDAQDSRVGSMFGPYHLKRLLGRGGMGEVYEAEHTVKEWTVAVKLMTAEFSKDPVFRERMKREARIAGRLQEPHVVPIHDYGEVDGQMFLEMRLVEGTDLDSVLKRFGPLTPPRAVAIITQIASALDAAHADGVMHRDVKPQNILITRDDFAYLVDFGIASATTDEKLTQLGTAVGTWKYMAPERFSNDEVTYRADIYALACVLHECLTGAPPYRADSAGTLVSSHLMGPIPQPSAIRPGIPKAFDAVVARGMAKKPEDRYASAGDLALAAHEALSDPDQDHAADILRRSQESTLPGTAAVTAQPPTMPTVTPPPIQAAPTGQPSWAPNSGPMPASGPTPTPQYYQGGGWGAPPSGGPSPWAQTPRKTNPWPFVAGAAAVVLVLVLGAIGIWIAIRPKPVQPPQPVAEERLSALLLNSSEVNAVMGSSSMQPGKPITSMDSSPVTVSLPDCQGALYTSQDPVYAGTGYTAINGLISSEPGDNYEHWVNQAVVAFPTADKARAFVQTSADKWKNCAGKTVTVTNKAKTYRWTFADVKGSPPTITVIDTQEGAEGWECQRAMSVANNVVVDVNACGYQITNQAGQIAAKIVDKVNKE | failed
10 | MSDATNNAVLVRNLSPEVTKQTLLDFFSFCGEISAVKIRPSVGEGGSSSSGSPTEAMEALVIFENQSAKKTALVLDSATLKKRKISVMDATEELVSSFKDVREVDLARDSTDVPETATARQERLQGLREEFDRAIKRASDKLSDFNEKHRITEKVQEFGDLTKRKTQEINEQYRLTERAREGWQTVREKTRELDERLHLSESARDGWRSLKASVSKIMQKDRGGEVDKA | not failed
11 | MSDFWENELVEIAAYYSVAVLCLVLFLTVFELVTAYKNWEEIQKGNLAVAMATGGKILGIANVFQHSISQHNSLLQMIGWGVYGFVMLLISYFIFEFLTPRFKIDQEIENDNRAVGFISFVISVGLSFVVAAGI | failed
12 | MSDHPGPGAVTPELFGVGGDWLAVTAGESGASVFRAADATRYAKCVPAADAAGLEAERDRIAWLSGQGVPGPRVLDWYAGDAGACLVTRAVPGVPADRVGADDLRTAWGAVADAVRRLHEVPVASCPFRRGLDSVVDAARDVVARGAVHPEFLPVEQRLVPPAELLARLTGELARRRDQEAADTVVCHGDLCLPNIVLHPETLEVSGFIDLGRLGAADRHADLALLLANARETWVDEERARFADAAFAERYGIAPDPERLRFYLHLDPLTWG | failed
13 | MSDHRPAARPWANRRRTIMSTTTLPGSTVATLTVTTPSDREVQITRIFDASRPMVFDCWTIPELLKGWLHGPDGWRLAICEIDLRVGGATRYVWQHRDGRSMGMSGAYREIVRPARIVATELFDEDWTGGETVGTVVFTEQAGKTLLTQTVLYASQAARDGALGTGMTRGMGESYAQLDAYLISLQDAAKGAA | failed
14 | MSDILKFSVVIPVYNGSNTVTRAVDSCLKQTTLPWEIIIVNDCSKDNTLDVLIENYQGNNIVKIYSLPKNSGVSVARNLGWDKATGDFIAFLDADDVWHPSKLEVLNELKHGYKDVSCIAHKYTENSLPEEKKIMPKCKILKFRHFLIRNYFNTSCLAVCKCIGERFNETMRYTEDHDLCLRIANKMNIYYIDLPLTSLGRPQLSKGGLSGNQWAMRKGEMKLYFHACKLRWWLFPCLPLFFLFSIAKHLLKLGMRCMK | failed
15 | MSDKKTQTRARILGAATQALLERGAVEPSVGEVMGAAGLTVGGFYAHFQSKDALMLEAFEQLLGKRRELLGELDPGLSGKERRALAAAFYLSRKHRDAQVDAGCPLPATLAEVARLPEGFREVLSRHVEIMVTSLAESPEETDVALADLVLMIGGLALARALGPGELSDRVLRAAKQAVN | not failed
16 | MSDLLFPIISMVLLVLAEAGVLQFTGRQKVDWLDVIFNINSGHMMLWLFRCLEVLCYGLVINHFSLGLFDNAPVILLWLFTILAWDFGFYWLHRWHHEMRPLWAVHVVHHQGEHYNLSLGVRNSWYSSLTSIPFFMLLAMLGVPLQIFLAVSIIHYSWQFFNHNALTPKLGWLEKVLITPSHHRVHHLNQKQYADTNYGGTFLLWDKLFGSYSAGPEYDVGYGVKNSRLSCNPMRESNLPFLRLMGFRSFGKAIEGRYQSSPWAVGAGVILLFMLVLGYIQQYGYGIEFITSEQAVLFVLLAAGSVALGGMSDGQHWGMILWCSVTLSLLYFIVYMCSWSTLLWKGLVGILLAHCLLFVIGVGRKSLRKQYEPV | failed
17 | MSDLRTVPKHTALLIGLMIFGLFFGAGNLIFPVELGRLAGHSAPVTAAGFLVTAVGIPIVAIISSAVSGCSSVHGMTSRVSSQYATIFTCLLYLTIGPAFAIPRTATVSYEVGVAPFIQGHGPALPIFTIVFFAMTLVAALKPGKLMDWVGRYLTPLFLALLAILIVATLIHPMPTVANRPPQPPYDHQPFMHGFLDGYNTMDALASLAFAIVIIEAINQRGSTGRRDVTHITIRAGLVATIPLTLVYVSLAWLGRTSTLVVPNAANGGVVLAGVSRHYYGTAGQVLIAAIVLVACLKTAIGLVVACAEIFRRMFPAGPSVRSWVVIFSVASAIIANAGLTTIIAWSTPVLMFLYPLAITAIILGLLDPWLGASRLPHRIMTGCVVLAALPDLVRALPIQGSGTRAITHVADMVLPWASDGLGWGLPAIIGLAAGWGASLILGRPRRWGTSS | failed
18 | MSDNYKFFRHDNCEYFPCHKVKDKETFNCLFCYCPLYFLENCGGNKSDFNGVKDCSNCLIPHSKNGYDYIINKIREVNKEKRAKNNLTLEHHHHHH | not failed
19 | MSDPSAKPLQEHILIILDDAGRREVLLTETFYTIGRSPRADIRIKSQFVSRIHAVLVRKSSDDVQAAYRIIDGDEDGQSSVNGLMINGKKVQEHIIQTGDEIVMGPQVSVRYEYRRRDQFGTMPGNEQFDITLIDPGMIDDEEEIPTSVSSSPPEME | failed
